In Vitro Score and In Vitro Score (% of positive control peptide) data for three molecules are collected here from US20160158359A1.

Experiment [1] concerns the target HLA-A*11:01 recombinant MHC class I molecule (human). The experiment in a line: REVEAL MHC-peptide binding assay, stabilisation of ternary MHC-peptide complex, recombinant HLA. The conditions noted are these: remark: other sources report otherwise; scale: % of positive control peptide.
Experiment [2] concerns the target HLA-B*08:01 recombinant MHC class I molecule (human). The experiment is described as above. The conditions noted are these: remark: other sources report otherwise; scale: % of positive control peptide.
In experiment [3] the target is HLA-A*03:01 recombinant MHC class I molecule (human). The experiment in a line: REVEAL MHC-peptide complex stabilisation assay, recombinant HLA-A*03:01. The conditions noted are these: remark: other sources report otherwise.
The target of experiment [4] is recombinant HLA-A*02:01 MHC class I molecule (human). In words: REVEAL MHC-peptide binding assay, stabilisation of ternary complex with recombinant MHC. The conditions noted are these: remark: other sources report otherwise; scale: score, % of positive control peptide.
In experiment [5] the target is recombinant HLA-A*03:01 MHC class I molecule (human). Described as above. The conditions noted are these: remark: other sources report otherwise; scale: score, % of positive control peptide.

VAFIIFWVR: the In Vitro Score in experiment [1] came out at 34.6; in experiment [2], 0.1.
For the molecule IFWVQRGAK […], the In Vitro Score (% of positive control peptide) in experiment [3] was found to be 7.
For VAFIIFWVR [… synthetic 9-mer peptide (overlapping reference peptide 1, K29R)], the In Vitro Score was found to be 1.2 in experiment [4] and 0.7 in experiment [5].
